Where “and” joins values, the source holds several entries; their conditions need not be identical. Identical values can stand only once.
The binders below were run against HRgpA-6H (Porphyromonas gingivalis) (UniProt P28784) (assay: ELISA on coated HRgpA-6H).
Chain of UniProt P28784 (P28784 228-991 limits assumed): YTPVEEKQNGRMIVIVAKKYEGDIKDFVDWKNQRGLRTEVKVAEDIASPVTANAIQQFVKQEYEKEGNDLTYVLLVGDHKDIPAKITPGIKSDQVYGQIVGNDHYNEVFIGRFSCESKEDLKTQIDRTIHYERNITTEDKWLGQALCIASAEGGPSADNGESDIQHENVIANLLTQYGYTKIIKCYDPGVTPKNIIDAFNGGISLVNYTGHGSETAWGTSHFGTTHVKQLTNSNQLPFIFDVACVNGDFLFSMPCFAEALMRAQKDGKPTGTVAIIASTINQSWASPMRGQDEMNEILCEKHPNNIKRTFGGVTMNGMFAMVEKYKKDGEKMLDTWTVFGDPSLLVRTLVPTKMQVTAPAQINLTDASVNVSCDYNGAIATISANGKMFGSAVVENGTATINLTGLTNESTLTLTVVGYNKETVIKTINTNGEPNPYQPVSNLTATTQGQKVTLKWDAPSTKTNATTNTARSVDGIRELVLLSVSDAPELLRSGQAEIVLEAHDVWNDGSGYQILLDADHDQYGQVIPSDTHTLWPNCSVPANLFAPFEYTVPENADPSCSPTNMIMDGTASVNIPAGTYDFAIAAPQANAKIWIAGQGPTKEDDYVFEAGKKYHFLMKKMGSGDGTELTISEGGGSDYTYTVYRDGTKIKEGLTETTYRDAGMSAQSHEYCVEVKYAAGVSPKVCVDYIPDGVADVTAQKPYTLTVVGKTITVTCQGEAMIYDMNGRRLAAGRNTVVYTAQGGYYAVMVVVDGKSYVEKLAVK

Binder | OD450nm | Ratio OD(Variant)/OD(WT)
KB001 mouse Fab FASEBA VH S57A (Fab, V domains shown) VH: EVQLKQSGPGLVAPSQSLSITCTVSGFSLSIYSVHWVRQPPGKGLEWLGMIWGGGSADYNSALKSRLSISKDNSKSQVFLKMNSLQTDDTAMYYCARNGNFYAMDYWGQGTSVTVSS VL: QIVLTQSPAIMSASLGERVTMTCTASSSVSSSFLHWYQQKPGSSPQLWIYSTSNLASGVPARFSGSGSGTSYSLTISSMEAEDAATYYCHQYHHSPYIYTFGGGTKLEIK | 0.922 | 1.05
KB001 mouse Fab FASEBA VH Y106R (Fab, V domains shown) VH: EVQLKQSGPGLVAPSQSLSITCTVSGFSLSIYSVHWVRQPPGKGLEWLGMIWGGGSSDYNSALKSRLSISKDNSKSQVFLKMNSLQTDDTAMYYCARNGNFYAMDRWGQGTSVTVSS VL: QIVLTQSPAIMSASLGERVTMTCTASSSVSSSFLHWYQQKPGSSPQLWIYSTSNLASGVPARFSGSGSGTSYSLTISSMEAEDAATYYCHQYHHSPYIYTFGGGTKLEIK | 0.793 | 1.03
KB001 mouse Fab FASEBA VH K64A (Fab, V domains shown) VH: EVQLKQSGPGLVAPSQSLSITCTVSGFSLSIYSVHWVRQPPGKGLEWLGMIWGGGSSDYNSALASRLSISKDNSKSQVFLKMNSLQTDDTAMYYCARNGNFYAMDYWGQGTSVTVSS VL: QIVLTQSPAIMSASLGERVTMTCTASSSVSSSFLHWYQQKPGSSPQLWIYSTSNLASGVPARFSGSGSGTSYSLTISSMEAEDAATYYCHQYHHSPYIYTFGGGTKLEIK | 0.89 | 1.08
KB001 mouse Fab FASEBA VH Y106T (Fab, V domains shown) VH: EVQLKQSGPGLVAPSQSLSITCTVSGFSLSIYSVHWVRQPPGKGLEWLGMIWGGGSSDYNSALKSRLSISKDNSKSQVFLKMNSLQTDDTAMYYCARNGNFYAMDTWGQGTSVTVSS VL: QIVLTQSPAIMSASLGERVTMTCTASSSVSSSFLHWYQQKPGSSPQLWIYSTSNLASGVPARFSGSGSGTSYSLTISSMEAEDAATYYCHQYHHSPYIYTFGGGTKLEIK | 0.827 | 1.07
KB001 mouse Fab FASEBA VH S61N (Fab, V domains shown) VH: EVQLKQSGPGLVAPSQSLSITCTVSGFSLSIYSVHWVRQPPGKGLEWLGMIWGGGSSDYNNALKSRLSISKDNSKSQVFLKMNSLQTDDTAMYYCARNGNFYAMDYWGQGTSVTVSS VL: QIVLTQSPAIMSASLGERVTMTCTASSSVSSSFLHWYQQKPGSSPQLWIYSTSNLASGVPARFSGSGSGTSYSLTISSMEAEDAATYYCHQYHHSPYIYTFGGGTKLEIK | 0.537 | 1.09
KB001 mouse Fab FASEBA VH G99Y (Fab, V domains shown) VH: EVQLKQSGPGLVAPSQSLSITCTVSGFSLSIYSVHWVRQPPGKGLEWLGMIWGGGSSDYNSALKSRLSISKDNSKSQVFLKMNSLQTDDTAMYYCARNYNFYAMDYWGQGTSVTVSS VL: QIVLTQSPAIMSASLGERVTMTCTASSSVSSSFLHWYQQKPGSSPQLWIYSTSNLASGVPARFSGSGSGTSYSLTISSMEAEDAATYYCHQYHHSPYIYTFGGGTKLEIK | 0.835 | 1.05
KB001 mouse Fab FASEBA VH Y106L (Fab, V domains shown) VH: EVQLKQSGPGLVAPSQSLSITCTVSGFSLSIYSVHWVRQPPGKGLEWLGMIWGGGSSDYNSALKSRLSISKDNSKSQVFLKMNSLQTDDTAMYYCARNGNFYAMDLWGQGTSVTVSS VL: QIVLTQSPAIMSASLGERVTMTCTASSSVSSSFLHWYQQKPGSSPQLWIYSTSNLASGVPARFSGSGSGTSYSLTISSMEAEDAATYYCHQYHHSPYIYTFGGGTKLEIK | 0.791 | 1.03
KB001 mouse Fab FASEBA VH Y106I (Fab, V domains shown) VH: EVQLKQSGPGLVAPSQSLSITCTVSGFSLSIYSVHWVRQPPGKGLEWLGMIWGGGSSDYNSALKSRLSISKDNSKSQVFLKMNSLQTDDTAMYYCARNGNFYAMDIWGQGTSVTVSS VL: QIVLTQSPAIMSASLGERVTMTCTASSSVSSSFLHWYQQKPGSSPQLWIYSTSNLASGVPARFSGSGSGTSYSLTISSMEAEDAATYYCHQYHHSPYIYTFGGGTKLEIK | 0.803 | 1.04
KB001 mouse Fab FASEBA VH N100E (Fab, V domains shown) VH: EVQLKQSGPGLVAPSQSLSITCTVSGFSLSIYSVHWVRQPPGKGLEWLGMIWGGGSSDYNSALKSRLSISKDNSKSQVFLKMNSLQTDDTAMYYCARNGEFYAMDYWGQGTSVTVSS VL: QIVLTQSPAIMSASLGERVTMTCTASSSVSSSFLHWYQQKPGSSPQLWIYSTSNLASGVPARFSGSGSGTSYSLTISSMEAEDAATYYCHQYHHSPYIYTFGGGTKLEIK | 0.886 | 1.05
KB001 mouse Fab FASEBA VH G99S (Fab, V domains shown) VH: EVQLKQSGPGLVAPSQSLSITCTVSGFSLSIYSVHWVRQPPGKGLEWLGMIWGGGSSDYNSALKSRLSISKDNSKSQVFLKMNSLQTDDTAMYYCARNSNFYAMDYWGQGTSVTVSS VL: QIVLTQSPAIMSASLGERVTMTCTASSSVSSSFLHWYQQKPGSSPQLWIYSTSNLASGVPARFSGSGSGTSYSLTISSMEAEDAATYYCHQYHHSPYIYTFGGGTKLEIK | 0.809 | 1.01
KB001 mouse Fab FASEBA VH K64R (Fab, V domains shown) VH: EVQLKQSGPGLVAPSQSLSITCTVSGFSLSIYSVHWVRQPPGKGLEWLGMIWGGGSSDYNSALRSRLSISKDNSKSQVFLKMNSLQTDDTAMYYCARNGNFYAMDYWGQGTSVTVSS VL: QIVLTQSPAIMSASLGERVTMTCTASSSVSSSFLHWYQQKPGSSPQLWIYSTSNLASGVPARFSGSGSGTSYSLTISSMEAEDAATYYCHQYHHSPYIYTFGGGTKLEIK | 0.87 | 1.05
KB001 mouse Fab FASEBA VH Y59V (Fab, V domains shown) VH: EVQLKQSGPGLVAPSQSLSITCTVSGFSLSIYSVHWVRQPPGKGLEWLGMIWGGGSSDVNSALKSRLSISKDNSKSQVFLKMNSLQTDDTAMYYCARNGNFYAMDYWGQGTSVTVSS VL: QIVLTQSPAIMSASLGERVTMTCTASSSVSSSFLHWYQQKPGSSPQLWIYSTSNLASGVPARFSGSGSGTSYSLTISSMEAEDAATYYCHQYHHSPYIYTFGGGTKLEIK | 0.83 and 0.79 | 1.05 and 0.999
KB001 mouse Fab FASEBA VH A103S (Fab, V domains shown) VH: EVQLKQSGPGLVAPSQSLSITCTVSGFSLSIYSVHWVRQPPGKGLEWLGMIWGGGSSDYNSALKSRLSISKDNSKSQVFLKMNSLQTDDTAMYYCARNGNFYSMDYWGQGTSVTVSS VL: QIVLTQSPAIMSASLGERVTMTCTASSSVSSSFLHWYQQKPGSSPQLWIYSTSNLASGVPARFSGSGSGTSYSLTISSMEAEDAATYYCHQYHHSPYIYTFGGGTKLEIK | 0.909 | 1.05
KB001 mouse Fab FASEBA VH S57Q (Fab, V domains shown) VH: EVQLKQSGPGLVAPSQSLSITCTVSGFSLSIYSVHWVRQPPGKGLEWLGMIWGGGSQDYNSALKSRLSISKDNSKSQVFLKMNSLQTDDTAMYYCARNGNFYAMDYWGQGTSVTVSS VL: QIVLTQSPAIMSASLGERVTMTCTASSSVSSSFLHWYQQKPGSSPQLWIYSTSNLASGVPARFSGSGSGTSYSLTISSMEAEDAATYYCHQYHHSPYIYTFGGGTKLEIK | 0.915 and 0.863 and 0.836 | 1.04 and 0.981 and 0.951
KB001 mouse Fab FASEBA VH S61T (Fab, V domains shown) VH: EVQLKQSGPGLVAPSQSLSITCTVSGFSLSIYSVHWVRQPPGKGLEWLGMIWGGGSSDYNTALKSRLSISKDNSKSQVFLKMNSLQTDDTAMYYCARNGNFYAMDYWGQGTSVTVSS VL: QIVLTQSPAIMSASLGERVTMTCTASSSVSSSFLHWYQQKPGSSPQLWIYSTSNLASGVPARFSGSGSGTSYSLTISSMEAEDAATYYCHQYHHSPYIYTFGGGTKLEIK | 0.543 and 0.447 | 1.1 and 0.906
KB001 mouse Fab FASEBA VH S65V (Fab, V domains shown) VH: EVQLKQSGPGLVAPSQSLSITCTVSGFSLSIYSVHWVRQPPGKGLEWLGMIWGGGSSDYNSALKVRLSISKDNSKSQVFLKMNSLQTDDTAMYYCARNGNFYAMDYWGQGTSVTVSS VL: QIVLTQSPAIMSASLGERVTMTCTASSSVSSSFLHWYQQKPGSSPQLWIYSTSNLASGVPARFSGSGSGTSYSLTISSMEAEDAATYYCHQYHHSPYIYTFGGGTKLEIK | 0.867 | 1.05
KB001 mouse Fab FASEBA VH S57V (Fab, V domains shown) VH: EVQLKQSGPGLVAPSQSLSITCTVSGFSLSIYSVHWVRQPPGKGLEWLGMIWGGGSVDYNSALKSRLSISKDNSKSQVFLKMNSLQTDDTAMYYCARNGNFYAMDYWGQGTSVTVSS VL: QIVLTQSPAIMSASLGERVTMTCTASSSVSSSFLHWYQQKPGSSPQLWIYSTSNLASGVPARFSGSGSGTSYSLTISSMEAEDAATYYCHQYHHSPYIYTFGGGTKLEIK | 0.911 and 0.869 | 1.04 and 0.988
KB001 mouse Fab FASEBA VH S65T (Fab, V domains shown) VH: EVQLKQSGPGLVAPSQSLSITCTVSGFSLSIYSVHWVRQPPGKGLEWLGMIWGGGSSDYNSALKTRLSISKDNSKSQVFLKMNSLQTDDTAMYYCARNGNFYAMDYWGQGTSVTVSS VL: QIVLTQSPAIMSASLGERVTMTCTASSSVSSSFLHWYQQKPGSSPQLWIYSTSNLASGVPARFSGSGSGTSYSLTISSMEAEDAATYYCHQYHHSPYIYTFGGGTKLEIK | 0.883 | 1.07
KB001 mouse Fab FASEBA VH Y106A (Fab, V domains shown) VH: EVQLKQSGPGLVAPSQSLSITCTVSGFSLSIYSVHWVRQPPGKGLEWLGMIWGGGSSDYNSALKSRLSISKDNSKSQVFLKMNSLQTDDTAMYYCARNGNFYAMDAWGQGTSVTVSS VL: QIVLTQSPAIMSASLGERVTMTCTASSSVSSSFLHWYQQKPGSSPQLWIYSTSNLASGVPARFSGSGSGTSYSLTISSMEAEDAATYYCHQYHHSPYIYTFGGGTKLEIK | 0.821 and 0.835 | 1.07 and 1.09
KB001 mouse Fab FASEBA VH Y106V (Fab, V domains shown) VH: EVQLKQSGPGLVAPSQSLSITCTVSGFSLSIYSVHWVRQPPGKGLEWLGMIWGGGSSDYNSALKSRLSISKDNSKSQVFLKMNSLQTDDTAMYYCARNGNFYAMDVWGQGTSVTVSS VL: QIVLTQSPAIMSASLGERVTMTCTASSSVSSSFLHWYQQKPGSSPQLWIYSTSNLASGVPARFSGSGSGTSYSLTISSMEAEDAATYYCHQYHHSPYIYTFGGGTKLEIK | 0.795 and 0.84 and 0.802 | 1.03 and 1.09 and 1.04
KB001 mouse Fab FASEBA VH S65D (Fab, V domains shown) VH: EVQLKQSGPGLVAPSQSLSITCTVSGFSLSIYSVHWVRQPPGKGLEWLGMIWGGGSSDYNSALKDRLSISKDNSKSQVFLKMNSLQTDDTAMYYCARNGNFYAMDYWGQGTSVTVSS VL: QIVLTQSPAIMSASLGERVTMTCTASSSVSSSFLHWYQQKPGSSPQLWIYSTSNLASGVPARFSGSGSGTSYSLTISSMEAEDAATYYCHQYHHSPYIYTFGGGTKLEIK | 0.866 and 0.897 | 1.05 and 1.08

From US20230365662A1
